The test system of data set [1] is Primary Human Gingival Fibroblasts. Kind of data set: In-Vitro Human Gingival Fibroblasts Soluble Collagen Assay. The class given is cell-based. To be noted: 72 hours. The protocol: Stage 1: Culturing Primary Human Gingival Fibroblasts (“HGF”): Primary Human Gingival Fibroblasts (“HGF”) were collected from tooth extraction patients and washed with 5 mL of PBS (phosphate buffered saline). The tissues were chopped into small pieces and placed into 15 mL centrifuge tube. The samples were digested with equal amounts of 1 mL 8% dispase and 1 mL 6% collagenase for 1 hr at 37° C., during which time the samples need to be shaken every 15 minutes. Once the digestion process was complete, the tube was centrifuged at 1100 r.p.m. for 6 minutes at room temperature. After centrifugation, a pellet of cells was formed in the bottom of the tube separating them from the supernatant solution. […] The petri dish with cells were placed in the incubator at 37° C. with 5% CO2 for about 10 days. The petri dish was checked for changes in medium color every two days. Fresh culture medium was replaced if changes in medium color occurred.
It was occasionally necessary to tap the petri dish to remove any sticky cells from the petri dish surface. At least 1 mL of fresh MEM culture medium was added to inactivate the trypsin and the cells are collected into a 15 mL centrifuge tube. The tube was then centrifuged at 1100 r.p.m. for 6 minutes at room temperature. […] Petri dishes were each placed with 1 mL cell suspension and 9 mL fresh MEM culture medium in the incubator at 37° C. with 5% CO2 for about 3-5 days until 80-90% cell monolayer coverage on the petri dishes was observed. […] 1 mL cell suspension and 1 mL fresh MEM culture medium were respectively added into each well of a 6-well plate. The cells were further washed with 2 mL PBS to remove any suspended cells until no suspended cells are visible. 2 mL culture medium, or 2 mL culture medium containing 1% Comparative Compositions or 2 mL culture medium containing 1% Inventive Compositions were added to the wells. Cells were maintained in the incubator at 37° C. with 5% CO2 for 72 hours.
After treatment, cells were washed two times with chilled PBS and homogenized with 6M urea. The cell homogenates were centrifuged at 15,000 r.p.m. for 15 min. 100 μL of the supernatant was mixed with 1 mL of Sircol Dye Reagent for 30 minutes. During this time period, a collagen-dye complex formed and precipitated out from the soluble unbound dye. The tubes were transferred to a microcentrifuge and spun at 12,000 r.p.m. for 10 minutes. The tubes were carefully inverted and drained. 750 μL ice-cold Acid-Salt Wash Reagent was gently added to the collagen-dye pellet to remove unbound dye from the surface of the pellet and the inside surface of the microcentrifuge tube. The tube was then centrifuged at 12,000 r.p.m. for 10 minutes. […]

A further data set concerns COL1A1. The experiment in a line: Compound Screening on Skin Dermis, collagen gene expression (microarray). The class given is in vivo, human. To be noted: dorsal forearm twice daily, four weeks, retinol at 0.2%, Pal-KTTKS at 100 ppm, vs vehicle, p-value in brackets. The text has this: (§1) To screen compounds, 30 to 40 female subjects with Fitzpatrick skin types I-III, aged 60-70. At Baseline, each subject was assigned to test each treatment. The products were applied to the dorsal forearm twice daily. Topical treatment with a minimally efficacious moisturizer was used as the vehicle for each test compound and as the negative control.
(§2) After four weeks of treatment, one 4-mm punch biopsy was taken from each treated site. The dermis was separated and snap-frozen in liquid nitrogen and stored at −80° C. until assayed. The frozen tissue was then processed for gene expression analysis. To determine gene expression levels, RNA was extracted, labeled with biotin, hybridized and analyzed using Affymetrix GeneTitan® U219 microarray plates according to the manufacturer's instructions.
(§3) For genomics analysis, microarray sample quality was assessed using principal components analysis and MA-plots. Treatment to negative control comparisons for the microarray data were assessed using ANOVA models fitted separately for each probe set. ANOVA model hypothesis tests were evaluated using the Empirical Bayes method available in the limma R package. A p-value cutoff of 0.05 or less was consider statistically significant.

The test system of another data set is COL1A2. Described as above. The class given is in vivo, human. To be noted: dorsal forearm twice daily, four weeks, retinol at 0.2%, Pal-KTTKS at 100 ppm, vs vehicle, p-value in brackets.
Excerpt: as §1, §2, §3

Data on two substances can be found in patent US20220409512A1, “ORAL CARE COMPOSITIONS FOR GUM HEALTH” (The Procter & Gamble Company, priority 2020, published 2022).

Turning to TGF-B, the “Collagen Productivity (Collagen/Cell)” value in data set [1] (Table 5, 1% composition in culture medium, TGF-B 5 ppm) amounted to 5.17 Collagen/Cell; in data set [1] (Table 6, 1:100 dilution, TGF-B 5 ppm), 4.86 Collagen/Cell; in data set [1] (Table 7, 1:100 dilution, TGF-B 5 ppm) it was 4.86 Collagen/Cell; in data set [1] (Table 9, 1:100 dilution, TGF-b 5 ppm) it was 5.17 Collagen/Cell.

As to “palmitoyl-lys-thr-thr-lys-ser [Pal-KTTKS]”, in the data set with COL1A1, the “COL1A1 LFC (Log base 2 of the average Fold Change)” value is −0.15 (0.44). For the same substance, the “COL1A2 LFC (Log base 2 of the average Fold Change)” value in the data set on COL1A2 is given as −0.048 (0.91).
